In article PMC8260879:

Columns and labels:
[1] = molecular target: EphA4 WT fused to C-terminal mTURQ or EYFP (human) (UniProt P54764); assay: fluorescence intensity fluctuation (FIF) analysis; molecular brightness in transfected HEK293 cells in the presence of ephrinA5-Fc
[2] = molecular target: EphA4 WT fused to C-terminal mTURQ or EYFP (human) (UniProt P54764); assay: FRET or BRET; FSI-FRET as without ligand but with 0.5 μg/ml ephrinA5-Fc in the hypo-osmotic medium; monomer-dimer equilibrium: dimer to monomers
[3] = molecular target: EphA4 WT fused to C-terminal mTURQ or EYFP (human) (UniProt P54764); assay: fluorescence intensity fluctuation (FIF) analysis; molecular brightness, no ligand, only the data at receptor concentrations above 3000 receptors/μm^2
[4] = molecular target: EphA4 WT fused to C-terminal mTURQ or EYFP (human) (UniProt P54764); assay: fluorescence intensity fluctuation (FIF) analysis; molecular brightness in regions of the basolateral membrane of transfected HEK293 cells, no ligand, data over the whole range of receptor concentrations
[5] = molecular target: EphA4 WT fused to C-terminal mTURQ or EYFP (human) (UniProt P54764); assay: FRET or BRET; FSI-FRET of mTURQ- and EYFP-tagged receptor in the plasma membrane of live HEK293T cells, no ligand, hypo-osmotic medium; fit of a monomer-dimer equilibrium (Equation 2): dimer to monomers; constants in two-dimensional concentration

EphA4 WT fused to C-terminal mTURQ or EYFP (from UniProt P54764-1 20-986) (receptor)
molecular brightness at the maximum of the distribution [1]: < 2 | stoichiometry N [2]: 2 | stoichiometry N [3]: 2 | molecular brightness at the peak of the distribution [4]: < 2 | oligomeric fraction above 3000 receptors/μm^2 [5]: > 65% | stoichiometry N [5]: 2
